Results published in a protein production outcome set (Wang et al. 2014).

Test: label from the status in PepcDB records

MSLIPLRQNIASMKGYIPGYQPPDIASWIKLNTNENPYPPSPEVVKAILEELGPDGAALRIYPSASSQKLREVAGELYGFDPSWIIMANGSDEVLNNLIRAFAAEGEEIGYVHPSYSYYGTLAEVQGARVRTFGLTGDFRIAGFPERYEGKVFFLTTPNAPLGPSFPLEYIDELARRCAGMLVLDETYAEFAESNALELVRRHENVVVTRTLSKSYSLAGMRIGLAIARPEVIAALDKIRDHYNLDRLAQAACVAALRDQAYLSECCRRIRETREWFTTELRSIGYDVIPSQGNYLFATPPDRDGKRVYDGLYARKVLVRHFSDPLLAHGMRISIGTREEMEQTLAALKEIGEGHHHHHH
protein production: not failed

MQAVRLFQGYLWHPRALALDLKALLPGEVAGARLLWDEVPPPTPFFEDGTPTHTQRFYQLTLLVLTEEPPEALKPLAEEAAEALGEVLEGLPPEVGWLLLEDLRPL
protein production: not failed

MATEISTRGRQRAIGHEEYSLYSSLSEEELLQMAIEQSLADKTRGPTPAEASASSQTNHQPGHFHPWTRSPSSPENPPARAPLGLFQGVMQKYSSNLFKTSQMAAMDPVLKAIKEGDEEALKIMIQDGKNLAEPNKEGWLPLHEAAYYGQLGCLKVLQQAYPGTIDQRTLQEETALYLATCREHLDCLLSLLQAGAEPDISNKSRETPLYKACERKNAEAVRILVRYNADANHRCNRGWTALHESVSRNDLEVMEILVSGGAKVEAKNVYSITPLFVAAQSGQLEALRFLAKHGADINTQASDSASALYEASKNEHEDVVEFLLSQGADANKANKDGLLPLHVASKKGNYRIVQMLLPVTSRTRVRRSGISPLHLAAERNHDAVLEALLAARFDVNAPLAPERARLYEDRRSSALYFAVVNNNVYATELLLLAGADPNRDVISPLLVAIRHGCLRTMQLLLDHGANIDAYIATHPTAFPATIMFAMKCLSLLKFLMDLGCDGEPCFSCLYGNGPHPPAPRPGRFHDAPVDDKAPSVVQFCEFLSAPEVSRWAGPIIDVLLDYVGNVQLCSRLKEHIDSFEDWAVIKEKAEPPRPLAHLCRLRVRKAIGKYRIKLLDTLPLPGRLIRYLKYENTQ
protein production: failed

MRAHGRRVSKRQPDSPGRLRGAFGSRLHLSPLTRLPARPIWRPRAGCAVPLAGPGCDPAGFMLKSPSFPFSAPAMLRHLPMTYCAIDFGTSNSAVALPDGDGMRLAPVEGDHLTLPTAIFFNNDEQTVEYGRAALASYIDGFDGRLMRSMKSILGSPLAETTTDLGDGSAMAYTEIIARFLTHLKRKAEARAGAPIGRAVLGRPVFFVDEDPRADRLAQDQLEAAARSVGFTDVHFQYEPIAAAFDYESRQQAERLVLVADIGGGTSDFSLVRVGPERMARLERKDDVLAHHGVHVAGTDYDRRVELAAILPAFGYRALDPEGRELPNRIYFDLATWHLINTVYTPKRLGELKLMKHLYQDGRQHDRLMSVVEQRLGHALMARAEEAKIGVAAGGETMIDLNDVEEDLQIAFDAERLVEASVDDTARIVDAARETVRLAGVAPRDLGALYFTGGSTGLAFLSGALAGAFPDAQPVFGDRLASVATGLGIHAQRLFG
protein production: failed

MRQYNPPAMNIPQEVARRRTFAIISHPDAGKTTLTEKLLLFAGAIQIAGSVKARKASRHASSDWMEIEKQRGISVASSVMQMEYRDCVINLLDTPGHQDFSEDTYRVLTAVDAALMVIDAANGVEPQTIRLLQVCRARNTPIITFINKLDREVREPLELLSEIEGHLGMDTVPFSWPVGMGKAFGGVFDIRRNRMRIFRAGQERRGEDDEFIDGLDNPEIPRRFGAAFAQASGEIELINEAAPAFDREAFLAGKQTPVFFGSAINNFGVQEVLDALVDQAPAPGPRQALEREVRPDEPKFTGVVFKVQANMDPAHRDRVAFVRVSSGRFERGMRLKVARTGKEMRPNNVVSFLSQRRELLDEAYAGDVIGIPNHGVLQLGDVLTEGESLRFTGLPFFAPELFQAVEVKDPLRTKQLRVGLTQLGEEGAIQVFRPEAAGGALLLGAVGQLQFEVVAHRLKTEYGVDARMMPSRYTSARWITSDDPRALRKFMDANAAHIAYDVVDAAAFLITSPAQLRVAEDLYPNVKFHALREHGGKVFGDKA
protein production: failed

MHLSLLVPFLFWITGCCTAEDPVTGPEEVSGQEQGSLTVQCRYTSGWKDYKKYWCQGVPQRSCKTLVETDASEQLVKKNRVSIRDNQRDFIFTVTMEDLRMSDAGIYWCGITKGGLDPMFKVTVNIGPAIQVPITVPTMPPITSTTTIFTVTTTVKETSMFPTLTSYYSDNGHGGGDSGGGEDGVGDGFLDLSVLLPVISAVLLLLLLVASLFAWRMVRRQKKAAGPPSEQAQSLEGDLCYADLSLKQPRTSPGSSWKKGSSMSSSGKDHQEEVEYVTMAPFPREEVSYAALTLAGLGQEPTYGNTGCPITHVPRTGLEEETTEYSSIRRPLPAAMP
protein production: not failed

GERCEPIELLSINLPEESSSRIIDIVTRRKGEMVMMENKNDRVFMEFHIPSRGIIGLNNAVLTASAGEAVIAHRFLEFQPWKGEIERRSNGSIIALESGTAYAYALNNLQSRGRFFISPQEEVYAG
protein production: failed

TKDFNLNVSATYNFNKNNIDELDGGKDIYYNSGWGSSAQHPSYDYVLSEGKPVGVIRGFKSAGFYTVDDFDYVDGVYKLKAGIPDISTAATGTYRRPSELQVADGQIAFPGALKLQDVDKSGIVDLDDVVDLGEVQAKHTGGFSLNGNYKNIDFGANFTYQIGGKVYNVATMSQLSGGKETGLGLNKYKDLAGAFQLYDIQNGNLVPVIEPTALKQLNANAKYALPYYEDAPILSDYVEDASYLRLNTLTVGYTLPKAWTTKAYMQKVRIYVTGGNLFCITGYSGLDPEVNSDPDKAKSYPTLGLDWGAYMRARTFTVGLNVEF
protein production: failed

IDRSTHFALRYRTLCHQQAQFKSPLRGLRGTRASLIPHQLHIAAEVGNRVNPRVLLADEVGLGKTIEAGMILQNQLFAEKVQRVLIIVPETLQHQWLVEMLRRFNLHFALFDEERCNDFDLDAVNPFTTESLIICSLNWLETHPNRVELVLNAQFDCLIVDEAHHLVWSETSPSTAYLLVEQLARIIPSVLLLTATPE
protein production: failed

MALTTISPHDAQELIARGAKLIDIRDADEYLREHIPEADLAPLSVLEQSGLPAKLRHEQIIFHCQAGKRTSNNADKLAAIAAPAEIFLLEDGIDGWKKAGLPVAVNKSQPLPLMRQVQIAAGGLILIGVVLGYTVNSGFFLLSGFVGAGLLFAGISGFCGMARLLDKMPWNQRA
protein production: failed

MSTDSVRSSTTGGSASGARTFCSLADLSTKKCVPCNAKDLRAMTEQSAQDLLQKVAGWDLANDNDTLKLHRSWRVKSFTKGLDFFQRVADIAESEGHHPDLHLVGWNNVKIEIWTHAIGGLTENDFILAAKINELQVEDLLRKKKVAK
protein production: failed

MNKVDEIEDFRFEDLEMETEKDKERMMTPTTRMSYSSSSSPSPSSASSSAASSLAAKAIRASSAHRDSSLSSAYSSPSSAPVPTPPKEVNKAYEYTSMKSLNEPKRGFWGSLASKAKAFLDEDDPNQLPQSPKRMEQSIPSATTSGTKEAGQTGRKSENPSLQRRLDAITSSLNYIGGTIGTVVEEGITAVENRTAGIIQETRKKIKKKPSLTRNQQNPEIQADLEIQLKASRDVAMAMAAKAKLLLRELKMVKSDLAFAKQRCAQLEEENKVLRENRSGDSQTDDDDLVRLQLETLLAEKARLAHENSIYTRENLYLRGVVEYHQLTMQDVVYFDEKTEEVTEVYPINVSSMSSSSDNSYNPNPSFLELK
protein production: failed

MKTLLSRSTAVPAKLLAATAITATLSAPAFSADANVESLVKAAQKEGSIYSVGMPDSWANWKDTWADLQSNYGLKHQDTDMSSAQEIAKFEAEKKNATADIGDVGFAFARVAVKKGVTQPYKPTTWNDIPDWAKDKDGHWALAYTGTISFISNNNLVKDAPKTWGDLLKGDYKVTVGDVGVAAQANNAVLAAAFANGGDESNLKPAIKFFAELAKQGRLSFTDPNIANLEKGEVEVAIMWDFNALNYRDKIDRERFTVTIPQDGSVISGYTTIINKYAKNPNAAKLAREYIFSDQGQINLAEGYARPIRTSITLPKSVQDKLIANDQYSNVHPVTDFSAWEKSARKLPRQWQESVLIHQQ
protein production: failed

MDPLVSFFDGMAQASWLRPVHDRLKKGTGSWANRAVLDVGCGTGRLLARGVHEAAHLAGVDLSKQMVLATEERLHEHKQCGRLTVVQGDAYDLPFADESFDVCLSTCVMFLLPEPERGMKEMIRVLNGAGVIGMLNPTNKMNHAAAKAYCKKSGITGFEEKTLLQWSNVSTRRHRYTAEQLTHFFKQHGAWVVTHELVLDGLAVVTVASWNKLEHHHHHH
protein production: failed
